Experimental data from patent publication US20050079613A1, “Downregulation of cell surface glycoproteins by a family of human ubiquitin ligases” (Oregon Health & Science University, priority 2002, published 2005).
Entries after “also recorded” stand apart in the source; their conditions may differ.

Key:
HLA class I (MHC I) = assay: Surface expression of endogenous MHC I on transfected HeLa cells, flow cytometry; assay type: cell-based, human; conditions: HeLa cells transfected with MARCH plasmid and GFP, 24 h post-transfection
Protocol: (§1) Flow cytometry. Cells were removed from tissue culture dishes with 0.05% Trypsin-EDTA (Invitrogen), washed with ice-cold PBS, and incubated with appropriate antibody for 30 minutes at 4° C. The cells were washed with ice-cold PBS and either resuspended in ice-cold PBS or incubated with PE-conjugated anti-mouse secondary antibody (DAKO) and washed again before analysis with a BD Biosciences (San Jose, Calif.) FACScalibur flow cytometer.
(§2) The ability to downregulate MHC I is common to KSHV-K3, KSHV-K5, MHV68-K3 and MV-M153R (Coscoy and Ganem, 2000, supra; Guerin et al., 2002, supra; Ishido et al., 2000b supra; Stevenson et al., 2000, supra). Additional substrates are ICAM-1 and B7.2 (but not B7.1) for KSHV-K5, as well as CD95 and CD4 for M153R (Coscoy and Ganem, 2001, supra; Guerin et al., 2002, supra; Ishido et al., 2000a, supra; Mansouri et al., 2003, supra). Since only low copy numbers were detected in HeLa cells for transcripts corresponding to each of the MARCH-proteins (FIG. 7C, and data not shown), HeLa cells were transfected with expression plasmids for MARCH-I, II, III, IV, V and VIII. Surface expression of selected glycoproteins was monitored upon transfection. The following known substrates for viral K3-family members were tested: Fas (CD95) and HLA class I (MHC I), both of which are endogenously expressed in HeLa cells, as well as transfected HLA-A2.1 or CD4. […] Surface expression of the respective markers was analyzed by flow cytometry. GFP was used to identify transfected cells.
With regards to whether MHC I downregulation by MARCH-IV was only observed at very high expression levels, since the viral immune evasion genes seem to be dedicated to MHC I downregulation, MHC I expression was compared at different expression levels of MARCH-IV or KSHV-K5 by taking advantage of the tetracycline-regulatable system to partially express either protein (Gossen, M. and H. Bujard, Proc. Natl. Acad. Sci. USA 89:5547-5551, 1992). Tet-off HeLa cells were transfected with either MARCH-IV or with KSHV-K5 in the presence of increasing amounts of tetracycline to shut off transcription. […]

transferrin receptor = assay: Surface expression of transferrin receptor on transfected HeLa cells, flow cytometry; assay type: cell-based, human; conditions: HeLa cells transfected with MARCH plasmid and GFP, 24 h post-transfection
Protocol: as §1
Cells were transfected with appropriate plasmids as well as GFP to track transfection efficiency. […]
The ability to downregulate MHC I is common to KSHV-K3, KSHV-K5, MHV68-K3 and MV-M153R (Coscoy and Ganem, 2000, supra; Guerin et al., 2002, supra; Ishido et al., 2000b supra; Stevenson et al., 2000, supra). […] Since only low copy numbers were detected in HeLa cells for transcripts corresponding to each of the MARCH-proteins (FIG. 7C, and data not shown), HeLa cells were transfected with expression plasmids for MARCH-I, II, III, IV, V and VIII. Surface expression of selected glycoproteins was monitored upon transfection. […] Surface expression of the respective markers was analyzed by flow cytometry. […]

HLA-A2.1 = assay: Surface expression of co-transfected HLA-A2.1 constructs on HeLa cells, flow cytometry; assay type: cell-based, human
Protocol: as §1, §2
The most likely targets for ubiquitination on transmembrane glycoproteins are lysines in the cytoplasmic tail. To examine the role of lysines for MHC I and CD4 downregulation by MARCH-IV, a panel of constructs derived from the human MHC I molecule HLA-A2.1 and a lysine-deleted version of CD4 (Mansouri et al., 2003, supra) were used. In addition to MARCH-IV, MARCH-VIII was included in this analysis since it reduced HLA-A2.1 surface expression (FIG. 10A). […] To rule out the possibility that these mutations changed the target molecules in such a way that they are no longer recognized by MARCH-IV or VIII, a lysine residue into a HA-tag at the carboxyterminal end of HLA-A2.1 was introduced.

ubiquitin = assay: In vitro ubiquitination assay with GST-fused RING-CH (PHD) domains, E1, E2 panel, anti-ubiquitin immunoblot; assay type: biochemical; conditions: for ubiquitin ligase activity with UbCH5a: E2 = UbCH5a; for ubiquitin ligase activity with MmUbc6: E2 = murine MmUbc6
Protocol: Ubiquitination assay. UbCH2 and UbCH3 were obtained from Boston Biochem. (His)6-UbCH5a and GST fusion proteins were expressed in BL21-DE3 cells (Stratagene) and BL21 cells (Amersham), respectively, and purified as previously described (Boutell, C., S. Sadis and R. D. Everett, J. Virol. 76:841-850, 2002; Tiwari, S. and A. M. Weissman, J. Biol. Chem. 276:16193-16200, 2001). Purified E3 proteins were stored at 4° C., and E2 proteins were stored at −80° C. In vitro reaction mixtures (20 μl total) included: 50 nM rabbit E1 (Boston Biochem), 28 μM Ubiquitin, 5 mM ATP, 50 mM Tris-HCl pH 7.5, 50 mM NaCl, and 2 mM DTT. E2 enzymes were used at concentrations varying from 0.1 to 2.3 μM, and E3 concentrations ranged from 3 to 30 μM. After 90 minutes of incubation at 30° C., reactions were stopped by boiling in SDS sample buffer. Samples were electrophoresed through 12% polyacrylamide SDS gels and blotted using anti-ubiquitin mouse antibody, P4D1 (Santa Cruz Biotech).
In vitro reaction mixtures (20 μl total) included: 50 nM rabbit E1 (Boston Biochem), 28 μM Ubiquitin, 10 mM ATP, 50 mM Tris-HCl pH 7.5, 50 mM NaCl, and 2 mM DTT. E2 enzymes were used at concentrations varying from 0.7 to 2.3 μM, and E3 concentrations ranged from 3 to 25 μM. After 90 minutes of incubation at 30° C., reactions were stopped by addition of 4×reducing sample buffer. Samples were electrophoresed through 12% SDS gels and blotted using anti-ubiquitin mouse antibody (Santa Cruz Biotech).
To examine if the RING-CH domains of MARCH-I and MARCH-II would act as ubiquitin ligases in vitro, DNA fragments encoding the amino-terminal RING-CH-domain of both proteins were fused to Glutathione-S-transferase. The resulting constructs were sequence confirmed and expression of GST-MARCH protein verified by immunoblot. The GST-fusion protein was expressed and purified from E. coli cultures using Glutathione-columns. The ICP0-RING-domain was also purified, in parallel with the MARCH-I and MARCH-II constructs. A panel of E2 enzymes was either purchased from commercial sources or purified either by nickel-chelate chromatography or on glutathione columns. All E2-enzymes formed mercapto-ethanol-sensisitve complexes with ubiquitin thus showing ubiquitin conjugating activity. Purified ubiquitin and E1 was obtained from commercial sources.
To examine if the RING-CH domains of MARCH proteins act as ubiquitin ligases in vitro, a DNA fragment encoding the amino-terminal RING-CH-domains of MARCH-I, II, IV and VIII were fused to Glutathione-S-transferase (GST) for bacterial expression. The GST-fusion proteins were purified from E. coli cultures using Glutathione-sepharose-columns. Approximately thirty E2 proteins are found in the human genome compared to only one E1 enzyme (Pickart, 2001, supra). […] The specificity and selectivity of E3s with respect to E2s, however, is not well characterized. To cover a spectrum of E2s, a panel of E2 enzymes (Mansouri et al., 2003, supra) was acquired. The various E2 enzymes were incubated with or without the RING-CH-GST fusions in the presence of ubiquitin, ATP, E1. The formation of multiubiquitin-adducts was examined by immunoblotting with antibodies against ubiquitin.

[1] = system: Fas (CD95), MHC I, HLA-A2.1, CD4, transferrin receptor, B7.1; assay: Surface glycoprotein panel on transfected HeLa cells, flow cytometry; assay type: cell-based, human; conditions: HeLa cells transfected with MARCH plasmid
Protocol: as §1
The ability to downregulate MHC I is common to KSHV-K3, KSHV-K5, MHV68-K3 and MV-M153R (Coscoy and Ganem, 2000, supra; Guerin et al., 2002, supra; Ishido et al., 2000b supra; Stevenson et al., 2000, supra). Additional substrates are ICAM-1 and B7.2 (but not B7.1) for KSHV-K5, as well as CD95 and CD4 for M153R (Coscoy and Ganem, 2001, supra; Guerin et al., 2002, supra; Ishido et al., 2000a, supra; Mansouri et al., 2003, supra). Since only low copy numbers were detected in HeLa cells for transcripts corresponding to each of the MARCH-proteins (FIG. 7C, and data not shown), HeLa cells were transfected with expression plasmids for MARCH-I, II, III, IV, V and VIII. Surface expression of selected glycoproteins was monitored upon transfection. […] Surface expression of the respective markers was analyzed by flow cytometry. […]

| Molecule | surface expression of MHC I (HLA class I (MHC I)) | surface expression of transferrin receptor (TfR) (transferrin receptor) | ubiquitin ligase activity with UbCH5a (ubiquitin) | ubiquitin ligase activity with MmUbc6 (ubiquitin) | other results |
| --- | --- | --- | --- | --- | --- |
| full-length MARCH-IV: MARCH-IV full length, which contains an N-terminal extension of 63 amino acids (protein) WYCYGLCAPAPQMLRHQGLLKCRCRMLFNDLKVFLLRRPPQAPLPMHGDPQPPGLAANNTLPALGAGGWAGWRGPREVVGREPPPVPPPPPLPPSSVEDDWGGPATEPPASLLSSASSDDFCKEKTEDRYSLGSSLDSGMRTPLCRICFQGPEQGELLSPCRCDGSVKCTHQPCLIKWISERGCWSCELCYYKYHVIAISTKNPLQWQAISLTVIEKVQVAAAILGSLFLIASISWLIWSTFSPSARWQRQDLLFQICYGMYGFMDVVCIGLIIHEGPSVYRIFKRWQAVNQQWKVLNYDKTKDLEDQKAGGRTNPRTSSSTQANIPSSEEETAGTPAPEQGPAQAAGHPSGPLSHHHCAYTILHILSHLRPHEQRSPPGSSRELVMRVTTV | downregulates MHC I | – | – | – | – |
| MARCH-VIII: human membrane-associated RING-CH ubiquitin ligase, SEQ ID NOS:53 and 61 (protein, listed as Homo sapiens) MSMPLHQISAIPSQDAISARVYRSKTKEKEREEQNEKTLGHFMSHSSNISKAGSPPSASAPAPVSSFSRTSITPSSQDICRICHCEGDDESPLITPCHCTGSLHFVHQACLQQWIKSSDTRCCELCKYEFIMETKLKPLRKWEKLQMTSSERRKIMCSVTFHVIAITCVVWSLYVLIDRTAEEIKQGQATGILEWPFWTKLVVVAIGFTGGLLFMYVQCKVYVQLWKRLKAYNRVIYVQNCPETSKKNIFEKSPLTEPNFENKHGHGICHSDTNSSCCTEPEDTGAEIIHV | reduced the surface expression of MHC I; also recorded: down regulated | almost complete elimination; also recorded: down regulated | – | – | downregulation of HLA-A2.1 with a lysine re-introduced into the C-terminal HA-tag (HLA-A2.1; HeLa cells): restored downregulation; surface expression of transfected HLA-A2.1 (HLA-A2.1; HeLa cells co-transfected with HLA-A2.1 and MARCH plasmid): reduced; downregulation of HLA-A2.1 with lysines removed from the tail (HLA-A2.1; HeLa cells, lysine-less HLA-A2.1 construct): resistant |
| MARCH-I: human membrane-associated RING-CH transmembrane ubiquitin ligase, SEQ ID NOS:39 and 54; expressed by transfection or as GST-RING-CH domain (protein, listed as Homo sapiens) MTSSHVCCNFLNMWKKSKISTMYYLNQDAKLSNLFLQASSPTTGTAPRSQSRLSVCPSTQDICRICHCEGDEESPLITPCRCTGTLRFVHQSCLHQWIKSSDTRCCELCKYDFIMETKLKPLRKWEKLQMTTSERRKIFCSVTFHVIAITCVVWSLYVLIDRTAEEIKQGNDNGVLEWPFWTKLVVVAIGFTGGLVFMYVQCKVYVQLWRRLKAYNRVIFVQNCPDTAKKLEKNFSCNVNTDIKDAVVVPVPQTGANSLPSAEGGPPEVVSV | no effect | reduced the surface levels of transferring receptor; also recorded: Some reduction; also recorded: strong downregulation | more active | only active with MmUbc6 | surface expression of MHC I (HLA class I (MHC I); listed as MARCH I): No significant MHC I downregulation; formation of high molecular weight ubiquitinated complexes with the E2 enzymes tested (ubiquitin; GST-RING-CH fusion, E2 panel overall): less active with most E2 enzymes tested |
| ICPO: purified RING domain (amino acids 1-241) of herpes simplex ICP0 as GST fusion, positive control (protein, left off: a dimerising Fc or GST, purified RING domain (amino acids 1-241) of herpes simplex ICP0 as GST fusion, positive control) MEPRPGASTRRPEGRPQREPAPDVWVFPCDRDLPDSSDSEAETEVGGRGDADHHDDDSASEADSTDTELFETGLLGPQGVDGGAVSGGSPPREEDPGSCGGAPPREDGGSDEGDVCAVCTDEIAPHLRCDTFPCMHRFCIPCMKTWMQLRNTCPLCNAKLVYLIVGVTPSGSFSTIPIVNDPQTRMEAEEAVRAGTAVDFIWTGNQRFAPRYLTLGGHTVRALSPTHPEPTTDEDDDDLDD | – | – | promoted the formation of high-molecular weight complexes | some activity | – |
| MARCH-III: human membrane-associated RING-CH ubiquitin ligase, SEQ ID NOS:43 and 56 (protein, listed as Homo sapiens) MTTSRCSHLPEVLPDCTSSAAPVVKTVEDCGSLVNGQPQYVMQVSAKDGQLLSTVVRTLATQSPFNDRPMCRICHEGSSQEDLLSPCECTGTLGTIHRSCLEHWLSSSNTSYCELCHFRFAVERKPRPLVEWLRNPGPQHEKRTLFGDMVCFLFITPLATISGWLCLRGAVDHLHFSSRLEAVGLIALTVALFTIYLFWTLVSFRYHCRLYNEWRRTNQRVILLIPKSVNVPSNQPSLLGLHSVKRNSKETVV | – | – | – | – | reduction in surface levels of any of the glycoproteins of the panel [1]: No reduction in surface levels |
